# Article PMC3290569, “Macro-to-Micro Structural Proteomics: Native Source Proteins for High-Throughput Crystallization” (PLoS ONE, 2012)
# Target: the molecule itself
# Experiment: crystal structure; novel structures of native source E. coli proteins, solved by molecular replacement and refined; oligomer seen in the crystal
row,Protein,stoichiometry N
1,"Glutamate dehydrogenase (GDH) (enzyme, Escherichia coli, UniProt P00370 1-447, looked up, glutamate dehydrogenase, Escherichia coli, native source protein; hexamer (dimer of trimers); source: purified from E. coli DH5α cells (CaptoQ, phenyl sepharose, MonoQ)) MDQTYSLESFLNHVQKRDPNQTEFAQAVREVMTTLWPFLEQNPKYRQMSLLERLVEPERVIQFRVVWVDDRNQIQVNRAWRVQFSSAIGPYKGGMRFHPSVNLSILKFLGFEQTFKNALTTLPMGGGKGGSDFDPKGKSEGEVMRFCQALMTELYRHLGADTDVPAGDIGVGGREVGFMAGMMKKLSNNTACVFTGKGLSFGGSLIRPEATGYGLVYFTEAMLKRHGMGFEGMRVSVSGSGNVAQYAIEKAMEFGARVITASDSSGTVVDESGFTKEKLARLIEIKASRDGRVADYAKEFGLVYLEGQQPWSLPVDIALPCATQNELDVDAAHQLIANGVKAVAEGANMPTTIEATELFQQAGVLFAPGKAANAGGVATSGLEMAQNAARLGWKAEKVDARLHHIMLDIHHACVEHGGEGEQTNYVQGANIAGFVKVADAMLAQGVI",6
2,"6-phospho-beta-glucosidase (BglA) (enzyme, Escherichia coli, UniProt Q46829 1-479, looked up, 6-phospho-beta-glucosidase BglA, Escherichia coli, native source protein; source: purified from E. coli DH5α cells (CaptoQ, phenyl sepharose, MonoQ)) MIVKKLTLPKDFLWGGAVAAHQVEGGWNKGGKGPSICDVLTGGAHGVPREITKEVLPGKYYPNHEAVDFYGHYKEDIKLFAEMGFKCFRTSIAWTRIFPKGDEAQPNEEGLKFYDDMFDELLKYNIEPVITLSHFEMPLHLVQQYGSWTNRKVVDFFVRFAEVVFERYKHKVKYWMTFNEINNQRNWRAPLFGYCCSGVVYTEHENPEETMYQVLHHQFVASALAVKAARRINPEMKVGCMLAMVPLYPYSCNPDDVMFAQESMRERYVFTDVQLRGYYPSYVLNEWERRGFNIKMEDGDLDVLREGTCDYLGFSYYMTNAVKAEGGTGDAISGFEGSVPNPYVKASDWGWQIDPVGLRYALCELYERYQRPLFIVENGFGAYDKVEEDGSINDDYRIDYLRAHIEEMKKAVTYDGVDLMGYTPWGCIDCVSFTTGQYSKRYGFIYVNKHDDGTGDMSRSRKKSFNWYKEVIASNGEKL",2
